Earlier results on three substances are cited in paper PMC5487894.

Where two headings read alike, the source gives them in different places.

The target in one data set is Rab5 (Homo sapiens) (UniProt P20339).
Data set [1] deals with CDC12 20-40 (Schizosaccharomyces pombe) (UniProt Q10059).
Data set [2] concerns the target Rac (Homo sapiens) (UniProt P63000).
Data set [3] has the same target. The source holds these as a separate data set.

UniProt Q10059, sequence (Q10059 20-40): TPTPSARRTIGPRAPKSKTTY
UniProt P20339, sequence (P20339 whole entry): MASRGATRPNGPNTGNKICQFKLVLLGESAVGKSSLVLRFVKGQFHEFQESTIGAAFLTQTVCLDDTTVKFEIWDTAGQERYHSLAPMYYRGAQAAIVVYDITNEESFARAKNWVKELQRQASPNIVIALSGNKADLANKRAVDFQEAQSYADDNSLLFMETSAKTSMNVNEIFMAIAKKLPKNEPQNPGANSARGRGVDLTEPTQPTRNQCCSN

Turning to APPL1 BAR-PH (from UniProt Q9UKG1), the Kd with Rab5 (Homo sapiens) was 900 nM.

As to CDC15 F-BAR (from UniProt Q09822), the dissociation constant (Kd) in data set [1] was 2 nM. As for IRSp53 RCB domain (from UniProt Q9UQB8), the equilibrium dissociation constant (Kd) with Rac (Homo sapiens) [2] was 20000 nM; in the data set with Rac (Homo sapiens) [3], 3000 nM.

The term Kd denotes the free concentration of one partner at which half of the binding sites on the other are occupied at equilibrium, for simple one-to-one binding.
